T1: Bovine ribonuclease B (ribonuclease B from bovine pancreas, Sigma-Aldrich), P61823
T1 chain: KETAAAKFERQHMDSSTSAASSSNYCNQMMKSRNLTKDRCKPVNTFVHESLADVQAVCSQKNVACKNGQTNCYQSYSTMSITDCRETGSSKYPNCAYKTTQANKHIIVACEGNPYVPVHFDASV

T2: bovine fetuin, P12763
T2 chain: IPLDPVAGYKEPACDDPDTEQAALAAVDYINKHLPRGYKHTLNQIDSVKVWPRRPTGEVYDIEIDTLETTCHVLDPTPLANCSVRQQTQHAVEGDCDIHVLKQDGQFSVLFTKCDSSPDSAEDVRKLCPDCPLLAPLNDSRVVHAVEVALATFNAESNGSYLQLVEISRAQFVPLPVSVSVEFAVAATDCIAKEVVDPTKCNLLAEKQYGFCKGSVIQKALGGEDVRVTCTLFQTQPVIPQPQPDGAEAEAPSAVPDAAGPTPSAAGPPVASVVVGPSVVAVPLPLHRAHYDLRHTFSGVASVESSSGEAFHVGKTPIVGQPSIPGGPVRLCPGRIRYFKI

B1: EndoBI-2 (endo-β-N-acetylglucosaminidase from B. infantis SC142), recombinant, signal peptide and transmembrane domains omitted (protein)
chain: VANAQEGDSPVAASQEGNGNKHFMVYYRAWRDVTMKGVNTDLPDDNWISMYDIPYGIDVVNVFSYVPSGQEAAAQPFYDKLKSDYAPYLHARGVKLVRGLDYSGVMVDGFKTWIAQQGKNVDSATESDYDAYADHVIETYMTSVGLDGLDIDMETFPDAAQVAISDQVITALAKRIGPKSDNPEGTMFLYDTNGSYTAPFKNVSDCFDYVAYQQYGSDSNRTAKAAATYEQFIDSTKFVPGLTFPEEGDMNNRWNDATEPYLDSHFYDVASYSYDHNLGGMFVYALDRDGRTYSDDDLAHIKPSNLIWTKTAIAQSQGMSLENAKQAANHFLDRMSYTKDVPAETRQTVAAATNLYEVNKAVLGADWNDGYSNTYDPTLELSLASIDTTALTGAIAKADALLADGATDTDVRTTLTTARNAA
B2: EndoBB (GH85 endo-β-N-acetylglucosaminidase, BLD_0197 from B. longum DJO10A), recombinant, signal peptide and transmembrane domain omitted (protein)
chain: CSGGTSATKYTITPENENEELVLGNRPEASYWFPEDLLKWNADKDPNLAYNVSTVPLAKRVDKADLKPVNDTQNTDTKVMAISIMNSSTSGNAPHGLNTANANTFSYWQYVDELVYWGGSSGEGIIVPPSPDVTDMGHTNGVPVLGTVFFPQNVSGGKVEWLDQTLAQKSDGSFPVADKLIEVATTYGFDGWFINQETEGENETSLGADYATKMQAFIAYLKKQAPDLRVVYYDSMTKDGSIDWQNALTDENSMYMTDGDHPIADEMFLNFWWTEDKLAGDDLLAASATKAKELGIDPYSLYAGIDVQADGYDTPVKWNLFAGKDGKTHTSLGLYCPSWAYWSAGNPTTFRKNESRLWVNDEGNPSVSTPYEDDEKWTGVSNYVAEQSAVTSLPFVTNFNNGSGYSFFREGKQISKMDWNNRSVSDIQPTYRWIVADEGGNKTKADYSDADAWYGGSSLKFSGKVAKDGKTMVKLYSASVKTGAKPTLSIAAKANVDTDLKAVLTFADGSVETVNGKKKVGNDWGVIDYDIAKLSNKTLTGIDFTYQSSEDKTGYELLLGNITLKDGSEETELGKVTEVKVDDSEFDDDALYAGARISWKTDGKAPAYEIYQINEDKSRSFLGVSNVENFYANALTRVGETNNTTFEIVPVDRYGTQGTSAKADMDWPDNSKPKAGATASRTLLNVGDEVTFTSASSKNTAEVAWSLPGSSKEHATGKSVTVTYDKEGVYDVEITAKNKSGEATATLKGQIVVSADVMDLVLLSQGAQVSADGFTNGNEKPEFAVDGDVKTKWCVTGPAPHELVVDLGAPKTVSQVDISHAQAGGEDASMNTQEYAIEVSEDGTEYTQVALVKGNTEGATSNAFAPVNARYVKLVVNKPTQGSDTAARIYEMQVRGADGAIL
B3: EndoBI-1 (endo-β-N-acetylglucosaminidase from B. infantis ATCC 15697, Blon_2468), recombinant, signal peptide and transmembrane domains omitted (protein)
chain: NADAVSPTQETIQSTGRHFMVYYRAWRDVTMKGVNTDLPDDNWISMYDIPYGVDVVNIFSYVPSGQEEQAQPFYDKLKSDYAPYLHSRGIKLVRGIDYTGVAVNGFRTFMKEQNKTESEATEADYDAYAKQVIDKYMISVGLDGLDIDMEAHPNDADVKISDNVIRALSKHIGPKSAKPDTTMFLYDTNGSYLNPFKNVAECFDYVAYQQYGSSSDRTARAAADYQPYIGNEFVPGLTFPEEGDMNNRWYDATEPYEESHFYQVASYVREHNLGGMFVYALDRDGRNYDEDLRRIVPSNLLWTKTAIAESEGMALDTAKTAANHYLDRMSLRQVIDDNAASADKARDMVGKAANLYETNKAVLGGDYGEGFSNTYDPTLEAGLLGIDISVLQQQIDKSSEIIGADTAESDAKTALRMARDAAIDGLTGKIYTADQVSAWSQALKAALDATVPVPTPDSTDQNGNRDKVTNHKVQGQPKQLSAT

What was measured:
[1] = target: Bovine lactoferrin (lactoferrin from bovine milk, Sigma), P24627
[2] = target: Human lactoferrin (lactoferrin from human milk, Sigma), P02788
[3] = target: T1, Bovine ribonuclease B (ribonuclease B …)
bovine fetuin, P12763 = target: T2, bovine fetuin, P12763

Sequence of Bovine lactoferrin (lactoferrin from bovine milk, Sigma), P24627 (P24627 20-708): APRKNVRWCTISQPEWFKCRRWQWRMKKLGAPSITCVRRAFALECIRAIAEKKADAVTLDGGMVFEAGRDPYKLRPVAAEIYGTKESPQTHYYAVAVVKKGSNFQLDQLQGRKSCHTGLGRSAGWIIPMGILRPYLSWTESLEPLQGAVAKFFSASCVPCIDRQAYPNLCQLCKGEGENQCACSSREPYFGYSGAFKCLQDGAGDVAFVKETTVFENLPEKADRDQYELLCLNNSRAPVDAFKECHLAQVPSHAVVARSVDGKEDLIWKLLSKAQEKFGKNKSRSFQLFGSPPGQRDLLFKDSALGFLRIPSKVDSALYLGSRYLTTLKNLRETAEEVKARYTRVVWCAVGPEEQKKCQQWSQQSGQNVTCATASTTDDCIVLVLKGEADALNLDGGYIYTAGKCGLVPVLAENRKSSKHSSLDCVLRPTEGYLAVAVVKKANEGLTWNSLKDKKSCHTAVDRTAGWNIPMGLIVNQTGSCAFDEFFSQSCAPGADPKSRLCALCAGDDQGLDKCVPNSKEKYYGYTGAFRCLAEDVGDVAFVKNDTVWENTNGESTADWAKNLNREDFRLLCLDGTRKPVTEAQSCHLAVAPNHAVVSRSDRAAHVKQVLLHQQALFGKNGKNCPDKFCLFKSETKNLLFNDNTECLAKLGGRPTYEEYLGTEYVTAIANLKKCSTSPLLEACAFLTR
Sequence of Human lactoferrin (lactoferrin from human milk, Sigma), P02788 (P02788 20-710): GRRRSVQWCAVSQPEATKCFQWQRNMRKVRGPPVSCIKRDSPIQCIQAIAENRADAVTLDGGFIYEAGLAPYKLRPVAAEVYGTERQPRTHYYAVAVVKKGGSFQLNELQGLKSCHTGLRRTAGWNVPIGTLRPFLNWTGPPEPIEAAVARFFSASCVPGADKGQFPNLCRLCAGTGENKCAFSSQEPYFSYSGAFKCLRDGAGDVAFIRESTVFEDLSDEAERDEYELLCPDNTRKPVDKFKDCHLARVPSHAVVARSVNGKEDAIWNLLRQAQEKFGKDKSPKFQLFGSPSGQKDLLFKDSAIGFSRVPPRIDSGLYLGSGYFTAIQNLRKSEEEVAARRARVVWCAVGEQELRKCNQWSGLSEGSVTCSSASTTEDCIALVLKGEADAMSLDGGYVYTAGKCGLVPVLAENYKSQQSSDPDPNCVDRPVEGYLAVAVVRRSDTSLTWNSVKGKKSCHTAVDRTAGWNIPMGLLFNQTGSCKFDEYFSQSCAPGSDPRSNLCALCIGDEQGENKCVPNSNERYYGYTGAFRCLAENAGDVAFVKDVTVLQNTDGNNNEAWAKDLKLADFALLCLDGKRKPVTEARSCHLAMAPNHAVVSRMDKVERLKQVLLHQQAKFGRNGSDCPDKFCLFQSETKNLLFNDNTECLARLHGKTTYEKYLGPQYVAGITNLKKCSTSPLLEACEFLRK

Protein | deglycosylation, change in MW on SDS-PAGE after overnight incubation [1] | deglycosylation, SDS-PAGE after overnight incubation [2] | deglycosylation (cleavage of high mannose glycans) [1] | deglycosylation (cleavage of high mannose glycans) [3] | deglycosylation (cleavage of high mannose glycans) [2] | release of N-glycans (bovine fetuin, P12763) | shift in molecular weight on SDS-PAGE of human milk after overnight incubation [2]
B1 | all of them were able to cleave bLF, as observed by discrete changes in MW on SDS-PAGE gels | EndoBI-1 and EndoBI-2 cleaved hLF |  |  |  |  | 
B2 | all of them were able to cleave bLF, as observed by discrete changes in MW on SDS-PAGE gels |  | cleaving RNAseB and bLF, but not hLF | cleaving RNAseB and bLF, but not hLF | cleaving RNAseB and bLF, but not hLF |  | 
B3 | all of them were able to cleave bLF, as observed by discrete changes in MW on SDS-PAGE gels | EndoBI-1 and EndoBI-2 cleaved hLF |  |  |  | releasing N-glycans from human IgA, IgG, RNase B and bovine fetuin | produced a shift in the molecular weight of primarily lactoferrin

From patent US20190381150
